Experimental data reported in PMC4944284, “Identification of a Functionally Relevant Adeno-Associated Virus Rep68 Oligomeric Interface” (Journal of Virology, 2016).
Positions count from the first letter of the chain named. Numbers in names are those of the source.

B1: Rep68* (AAV2 Rep68 C151S) (enzyme)
chain: MPGFYEIVIKVPSDLDGHLPGISDSFVNWVAEKEWELPPDSDMDLNLIEQAPLTVAEKLQRDFLTEWRRVSKAPEALFFVQFEKGESYFHMHVLVETTGVKSMVLGRFLSQIREKLIQRIYRGIEPTLPNWFAVTKTRNGAGGGNKVVDESYIPNYLLPKTQPELQWAWTNMEQYLSACLNLTERKRLVAQHLTHVSQTQEQNKENQNPNSDAPVIRSKTSARYMELVGWLVDKGITSEKQWIQEDQASYISFNAASNSRSQIKAALDNAGKIMSLTKTAPDYLVGQQPVEDISSNRIYKILELNGYDPQYAASVFLGWATKKFGKRNTIWLFGPATTGKTNIAEAIAHTVPFYGCVNWTNENFPFNDCVDKMVIWWEEGKMTAKVVESAKAILGGSKVRVDQKCKSSAQIDPTPVIVTSNTNMCAVIDGNSTTFEHQQPLQDRMFKFELTRRLDHDFGKVTKQEVKDFFRWAKDHVVEVEHEFYVKKGGAKKRPAPSDADISEPKRVRESVAQPSTSDAEASINYADRLARGHSL
notes: source: E. coli BL21(DE3), purified (Ni column, gel filtration on Superdex 200)
B2: Rep68*-N254A (enzyme)
chain: B1 chain with N254A
notes: as for B1
B3: Rep68*-Y224P (enzyme)
chain: B1 chain with Y224P
notes: as for B1
B4: Rep68*-Y224D (enzyme)
chain: B1 chain with Y224D
notes: as for B1
B5: Rep68*-Y224F (enzyme)
chain: B1 chain with Y224F
notes: also called Y224F mutant; source: E. coli BL21(DE3), purified (Ni column, gel filtration on Superdex 200)

What was measured:
[1] = target: the molecule itself; assay: AUC; sedimentation velocity, protein 10 uM, 25 mM Tris-HCl pH 8.0, 200 mM NaCl, 25,000 rpm, 20°C, SEDFIT (Fig. 1B, C)
[2] = target: the molecule itself; assay: AUC; sedimentation velocity, all proteins at 1 mg/ml, else as in Materials and Methods (25 mM Tris-HCl pH 8.0, 200 mM NaCl, 20°C) (Fig. 2D)

Protein | binding result [1] | binding result [2]
B1 | binds | –
B2 | – | binds
B3 | binds | –
B4 | binds | –
B5 | binds | –
